Laboratory results from patent US12227771B2, “Expression systems and methods of use thereof” (Janssen Pharmaceutica NV, priority 2019, dated 2025).

Molecular target: T1, human α9α10 nAChR (Homo sapiens, UniProt Q9GZZ6+Q9UGM1)
T1 construct: expressed in transfected cells; host or cells: HEK293T
Assay: FLIPR calcium assay of HEK293T cells co-transfected with α9α10 nAChR and cDNA clones, response evoked by 200 μM ACh
Format: cell-based
Conditions: for FLIPR Response (Fold/Baseline) / functional expression of co-transfected α9α10 nAChR in cDNA library screen / combined effect of TMIE and CHAT on functional responses from α9α10 nAChR: 200 μM ACh; for FLIPR Response (Fold/Baseline): 180 s; for FLIPR response evoked by 200 μM ACh: HEK293T transfected with α9α10 nAChR and the named protein; for functional expression of co-transfected α9α10 nAChR in cDNA library screen: HEK293T, 20,000 cDNA clones; for combined effect of TMIE and CHAT on functional responses from α9α10 nAChR: HEK293T
Procedure: Human embryonic kidney 293T (HEK293T) cells were cultured in high glucose DMEM medium supplemented with 10% FBS, sodium pyruvate and penicillin/streptomycin. Prior to transfection, cells were seeded at ˜80-90% confluence in 384-well fluorescence imaging plate reader (FLIPR) assay plates. After a 4 hour (hr) incubation, wells of cells were individually co-transfected with human α9α10 nAChR plus one of 20,000 clones from cDNA libraries encoding most all human proteins (Origene Technologies; Rockville, Md.; Broad Institute; Cambridge, Mass.) using Fugene HD (Promega; Madison, Wis.) according to the manufacture's protocol. After two days incubation, cells were washed three times with assay buffer (137 mM NaCl, 4 mM KCl, 2 mM CaCl2, 1 mM MgCl2, 5 mM glucose, 10 mM HEPES pH7.4) and loaded with Calcium5 dye (Molecular Devices; San Jose, Calif.) and 1.25 mM probenecid for 1 hr at room temperature (RT). After three washes, the plates were placed in the FLIPR stage.
To further characterize the regulation of α9α10 nAChR expression, HEK293T cells were co-transfected with α9α10 nAChR and each of CHAT, TMIE, TMEM100, TMEM132A, TMEM132C, TMEM132D, TMEM132E and TNFRSF10A individually and in combination (Table 2).

[1] = HEK293T co-transfected with α9α10 nAChR + CHAT plus the named gene
[2] = HEK293T co-transfected with α9α10 nAChR plus the named gene

T1 sequence (Q9UGM1 23-479): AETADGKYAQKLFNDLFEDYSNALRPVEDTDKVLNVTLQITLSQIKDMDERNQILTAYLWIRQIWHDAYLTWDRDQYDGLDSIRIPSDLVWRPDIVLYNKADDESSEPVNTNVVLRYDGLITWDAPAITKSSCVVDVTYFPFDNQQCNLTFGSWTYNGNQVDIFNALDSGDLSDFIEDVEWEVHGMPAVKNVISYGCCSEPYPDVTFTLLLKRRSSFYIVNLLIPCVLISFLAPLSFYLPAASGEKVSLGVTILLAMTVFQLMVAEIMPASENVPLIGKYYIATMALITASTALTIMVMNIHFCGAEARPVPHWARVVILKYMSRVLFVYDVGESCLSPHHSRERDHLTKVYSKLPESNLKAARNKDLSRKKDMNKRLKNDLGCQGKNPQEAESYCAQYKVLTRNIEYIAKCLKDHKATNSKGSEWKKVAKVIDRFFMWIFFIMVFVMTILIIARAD
T1 sequence (Q9GZZ6 25-450): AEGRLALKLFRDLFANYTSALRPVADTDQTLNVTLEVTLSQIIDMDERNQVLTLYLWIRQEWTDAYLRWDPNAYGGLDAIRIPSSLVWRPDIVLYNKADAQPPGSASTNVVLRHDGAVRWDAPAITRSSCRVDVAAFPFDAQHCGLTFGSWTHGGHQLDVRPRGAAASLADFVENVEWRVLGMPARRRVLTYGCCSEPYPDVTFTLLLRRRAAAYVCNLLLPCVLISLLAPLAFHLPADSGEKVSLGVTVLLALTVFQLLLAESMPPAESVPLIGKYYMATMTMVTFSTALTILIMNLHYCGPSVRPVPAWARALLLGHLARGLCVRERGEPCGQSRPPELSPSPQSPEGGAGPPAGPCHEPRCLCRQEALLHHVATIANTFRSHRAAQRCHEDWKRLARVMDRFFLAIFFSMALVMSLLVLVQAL

Row | Molecule | FLIPR Response (Fold/Baseline) [1] | FLIPR Response (Fold/Baseline) [2] | FLIPR response evoked by 200 μM ACh | functional expression of co-transfected α9α10 nAChR in cDNA library screen | combined effect of TMIE and CHAT on functional responses from α9α10 nAChR
1 | TMIE: Transmembrane inner ear expressed protein, SEQ ID NO: 4, co-transfected cDNA clone (protein, listed as Homo sapiens) MAGWPGAGPLCVLGGAALGVCLAGVAGQLVEPSTAPPKPKPPPLTKETVVFWDMRLWHVVGIFSLFVLSIIITLCCVFNCRVPRTRKEIEARYLQRKAAKMYTDKLETVPPLNELTEVPGEDKKKKKKKKKDSVDTVAIKVEEDEKNEAKKKKGEK | 2.2 Fold/Baseline | 0.7 Fold/Baseline | significant FLIPR responses | enabled functional expression | synergized to enhance functional responses
2 | TMEM132A: Transmembrane protein 132A, SEQ ID NO: 5, co-transfected cDNA clone (protein, listed as Homo sapiens) MCARMAGRTTAAPRGPYGPWLCLLVALALDVVRVDCGQAPLDPVYLPAALELLDAPEHFRVQQVGHYPPANSSLSSRSETFLLLQPWPRAQPLLRASYPPFATQQVVPPRVTEPHQRPVPWDVRAVSVEAAVTPAEPYARVLFHLKGQDWPPGSGSLPCARLHATHPAGTAHQACRFQPSLGACVVELELPSHWFSQASTTRAELAYTLEPAAEGPGGCGSGEENDPGEQALPVGGVELRPADPPQYQEVPLDEAVTLRVPDMPVRPGQLFSATLLLRHNFTASLLTLRIKVKKGLHVTAARPAQPTLWTAKLDRFKGSRHHTTLITCHRAGLTEPDSSPLELSEFLWVDFVVENSTGGGVAVTRPVTWQLEYPGQAPEAEKDKMVWEILVSERDIRALIPLAKAEELVNTAPLTGVPQHVPVRLVTVDGGGALVEVTEHVGCESANTQVLQVSEACDAVFVAGKESRGARGVRVDFWWRRLRASLRLTVWAPLLPLRIELTDTTLEQVRGWRVPGPAEGPAEPAAEASDEAERRARGCHLQYQRAGVRFLAPFAAHPLDGGRRLTHLLGPDWLLDVSHLVAPHARVLDSRVASLEGGRVVVGREPGVTSIEVRSPLSDSILGEQALAVTDDKVSVLELRVQPVMGISLTLSRGTAHPGEVTATCWAQSALPAPKQEVALSLWLSFSDHTVAPAELYDRRDLGLSVSAEEPGAILPAEEQGAQLGVVVSGAGAEGLPLHVALHPPEPCRRGRHRVPLASGTAWLGLPPASTPAPALPSSPAWSPPATEATMGGKRQVAGSVGGNTGVRGKFERAEEEARKEETEAREEEEEEEEEMVPAPQHVTELELGMYALLGVFCVAIFIFLVNGVVFVLRYQRKEPPDSATDPTSPQPHNWVWLGTDQEELSRQLDRQSPGPPKGEGSCPCESGGGGEAPTLAPGPPGGTTSSSSTLARKEAGGRRKRVEFVTFAPAPPAQSPEEPVGAPAVQSILVAGEEDIRWVCEDMGLKDPEELRNYMERIRGSS | 2.5 Fold/Baseline | 0.3 Fold/Baseline | – | enabled functional expression | –
3 | CHAT: Choline O-acetyltransferase, SEQ ID NO: 3, co-transfected cDNA clone (protein, listed as Homo sapiens) MAAKTPSSEESGLPKLPVPPLQQTLATYLQCMRHLVSEEQFRKSQAIVQQFGAPGGLGETLQQKLLERQEKTANWVSEYWLNDMYLNNRLALPVNSSPAVIFARQHFPGTDDQLRFAASLISGVLSYKALLDSHSIPTDCAKGQLSGQPLCMKQYYGLFSSYRLPGHTQDTLVAQNSSIMPEPEHVIVACCNQFFVLDVVINFRRLSEGDLFTQLRKIVKMASNEDERLPPIGLLTSDGRSEWAEARTVLVKDSTNRDSLDMIERCICLVCLDAPGGVELSDTHRALQLLHGGGYSKNGANRWYDKSLQFVVGRDGTCGVVCEHSPFDGIVLVQCTEHLLKHMTQSSRKLIRADSVSELPAPRRLRWKCSPEIQGHLASSAEKLQRIVKNLDFIVYKFDNYGKTFIKKQKCSPDAFIQVALQLAFYRLHRRLVPTYESASIRRFQEGRVDNIRSATPEALAFVRAVTDHKAAVPASEKLLLLKDAIRAQTAYTVMAITGMAIDNHLLALRELARAMCKELPEMFMDETYLMSNRFVLSTSQVPTTTEMFCCYGPVVPNGYGACYNPQPETILFCISSFHSCKETSSSKFAKAVEESLIDMRDLCSLLPPTESKPLATKEKATRPSQGHQP | – | – | significant FLIPR responses | enabled functional expression | synergized to enhance functional responses
